B1: CyPPO13 F373L: CyPPO13 (SEQ ID NO: 4) PPO variant (protein)
chain: MNPATPEPLNAEVVVIGAGISGLTLAWRLQQGLSARGGSPQAVLLAEASSRVGGCISTQSKDGYRWEEGPNSFTPTPALLNLIAEVGLTDQLVLADAKLPRYIYWEGALLPVPLSPAAALGSRLLSVGGKLRALQGLLGFVPPPPGHEETVRQFFRRQLGSEVAERLVEPFTSGVYAGDPDQLSAVAAFPRVAGLEERYGSLFAGALQALRQRPQPSPAAIQPPPKRGQLGNLRQGLQQLPEALAQKLGDSLRLGWRALQLKRAGELYWVGFETPEGSRWVAARQVVLALPAYEAAALLQELNPPASQLLAEILYPPVAVVALAYPQEALPQPLRGFGHLIPRSQGLRTLGTIWASCLFPERAPQGYHSFLSLLGGATDAALARRRGIPPIPALSPEERAQIAHAELSQVLLTRRAEPVYLGERLWPRAIPQYTLGHRQRIAQVQAHLASQTPGIWVCANYLDGVALGDCVRRAEALAQQLLSQV
modifications: Synthetic CyPPO13
B2: CyPPO13 F373T: CyPPO13 (SEQ ID NO: 4) PPO variant (protein)
chain: MNPATPEPLNAEVVVIGAGISGLTLAWRLQQGLSARGGSPQAVLLAEASSRVGGCISTQSKDGYRWEEGPNSFTPTPALLNLIAEVGLTDQLVLADAKLPRYIYWEGALLPVPLSPAAALGSRLLSVGGKLRALQGLLGFVPPPPGHEETVRQFFRRQLGSEVAERLVEPFTSGVYAGDPDQLSAVAAFPRVAGLEERYGSLFAGALQALRQRPQPSPAAIQPPPKRGQLGNLRQGLQQLPEALAQKLGDSLRLGWRALQLKRAGELYWVGFETPEGSRWVAARQVVLALPAYEAAALLQELNPPASQLLAEILYPPVAVVALAYPQEALPQPLRGFGHLIPRSQGLRTLGTIWASCLFPERAPQGYHSFLSTLGGATDAALARRRGIPPIPALSPEERAQIAHAELSQVLLTRRAEPVYLGERLWPRAIPQYTLGHRQRIAQVQAHLASQTPGIWVCANYLDGVALGDCVRRAEALAQQLLSQV
modifications: Synthetic CyPPO13
B3: CyPPO13 F373V: CyPPO13 (SEQ ID NO: 4) PPO variant (protein)
chain: MNPATPEPLNAEVVVIGAGISGLTLAWRLQQGLSARGGSPQAVLLAEASSRVGGCISTQSKDGYRWEEGPNSFTPTPALLNLIAEVGLTDQLVLADAKLPRYIYWEGALLPVPLSPAAALGSRLLSVGGKLRALQGLLGFVPPPPGHEETVRQFFRRQLGSEVAERLVEPFTSGVYAGDPDQLSAVAAFPRVAGLEERYGSLFAGALQALRQRPQPSPAAIQPPPKRGQLGNLRQGLQQLPEALAQKLGDSLRLGWRALQLKRAGELYWVGFETPEGSRWVAARQVVLALPAYEAAALLQELNPPASQLLAEILYPPVAVVALAYPQEALPQPLRGFGHLIPRSQGLRTLGTIWASCLFPERAPQGYHSFLSVLGGATDAALARRRGIPPIPALSPEERAQIAHAELSQVLLTRRAEPVYLGERLWPRAIPQYTLGHRQRIAQVQAHLASQTPGIWVCANYLDGVALGDCVRRAEALAQQLLSQV
modifications: Synthetic CyPPO13
B4: CyPPO13 F373H: CyPPO13 (SEQ ID NO: 4) PPO variant (protein)
chain: MNPATPEPLNAEVVVIGAGISGLTLAWRLQQGLSARGGSPQAVLLAEASSRVGGCISTQSKDGYRWEEGPNSFTPTPALLNLIAEVGLTDQLVLADAKLPRYIYWEGALLPVPLSPAAALGSRLLSVGGKLRALQGLLGFVPPPPGHEETVRQFFRRQLGSEVAERLVEPFTSGVYAGDPDQLSAVAAFPRVAGLEERYGSLFAGALQALRQRPQPSPAAIQPPPKRGQLGNLRQGLQQLPEALAQKLGDSLRLGWRALQLKRAGELYWVGFETPEGSRWVAARQVVLALPAYEAAALLQELNPPASQLLAEILYPPVAVVALAYPQEALPQPLRGFGHLIPRSQGLRTLGTIWASCLFPERAPQGYHSFLSHLGGATDAALARRRGIPPIPALSPEERAQIAHAELSQVLLTRRAEPVYLGERLWPRAIPQYTLGHRQRIAQVQAHLASQTPGIWVCANYLDGVALGDCVRRAEALAQQLLSQV
modifications: Synthetic CyPPO13
B5: CyPPO10 L327T: CyPPO10 (SEQ ID NO: 2) PPO variant (protein)
chain: MIEVDVAIVGGGLSGLSVAWRLQRSAPHYSGVLLEASDRLGGNITTQAAEGFVWELGPNSFAPTPALLQLIAEVGLHSELIRGDRHLPRYIYWRGELYPLEPTRPLALATSNLLSPWGKVRAALGALGFVPPYLGSGDESVDSFFRRHLGQEVAERLVAPFVSGVYAGDPQQLSAAAAFRRIAQLEKLGGSLIAGALRLRRQQPPQPKPPAQVQMRPGELGSFREGLAALPRAIAQQLKAPLHLQTPVEAITPEPKGGYLLRSGEQTWHARSVVLATPAYQTAELVAPFQPAIARALATIPYPTVACVVLAYPAGLGRSVRPGFGVTVPRGQGIRTLGTIWSSCLFPQRTPAGWQVFTSFIGGATDPDLASLREEAIVEQVQQDLTRLLDLPAAKARLLGMKVWRRAIPQYIVGYPQQWQQVTHALTQTPGLFLCSNYAEGVALGDRVEHGNRTAAAVAAYLAGGQS
modifications: Synthetic CyPPO10
B6: CyPPO10 F360T: CyPPO10 (SEQ ID NO: 2) PPO variant (protein)
chain: MIEVDVAIVGGGLSGLSVAWRLQRSAPHYSGVLLEASDRLGGNITTQAAEGFVWELGPNSFAPTPALLQLIAEVGLHSELIRGDRHLPRYIYWRGELYPLEPTRPLALATSNLLSPWGKVRAALGALGFVPPYLGSGDESVDSFFRRHLGQEVAERLVAPFVSGVYAGDPQQLSAAAAFRRIAQLEKLGGSLIAGALRLRRQQPPQPKPPAQVQMRPGELGSFREGLAALPRAIAQQLKAPLHLQTPVEAITPEPKGGYLLRSGEQTWHARSVVLATPAYQTAELVAPFQPAIARALATIPYPTVACVVLAYPAGLGRSVRPGFGVLVPRGQGIRTLGTIWSSCLFPQRTPAGWQVFTSTIGGATDPDLASLREEAIVEQVQQDLTRLLDLPAAKARLLGMKVWRRAIPQYIVGYPQQWQQVTHALTQTPGLFLCSNYAEGVALGDRVEHGNRTAAAVAAYLAGGQS
modifications: Synthetic CyPPO10
B7: CyPPO10 I340T: CyPPO10 (SEQ ID NO: 2) PPO variant (protein)
chain: MIEVDVAIVGGGLSGLSVAWRLQRSAPHYSGVLLEASDRLGGNITTQAAEGFVWELGPNSFAPTPALLQLIAEVGLHSELIRGDRHLPRYIYWRGELYPLEPTRPLALATSNLLSPWGKVRAALGALGFVPPYLGSGDESVDSFFRRHLGQEVAERLVAPFVSGVYAGDPQQLSAAAAFRRIAQLEKLGGSLIAGALRLRRQQPPQPKPPAQVQMRPGELGSFREGLAALPRAIAQQLKAPLHLQTPVEAITPEPKGGYLLRSGEQTWHARSVVLATPAYQTAELVAPFQPAIARALATIPYPTVACVVLAYPAGLGRSVRPGFGVLVPRGQGIRTLGTTWSSCLFPQRTPAGWQVFTSFIGGATDPDLASLREEAIVEQVQQDLTRLLDLPAAKARLLGMKVWRRAIPQYIVGYPQQWQQVTHALTQTPGLFLCSNYAEGVALGDRVEHGNRTAAAVAAYLAGGQS
modifications: Synthetic CyPPO10

The test system of one assay is CyPPO13. In words: PPO enzyme activity and IC50 by herbicides, CyPPO13 wild type and variants (MBP-PPO fusion). Particulars: PPO enzyme activity of CyPPO13 protein, wild type = 100. The format is biochemical, Synechococcus sp. JA-3-3Ab. The method, then:
(§1) The enzyme activities of PPO protein and PPO protein variants were examined, and inhibition assay by PPO-inhibiting herbicides was conducted. It was confirmed that the PPO protein has low water-solubility, but in case of being expressed as a fusion protein with MBP (maltose binding protein) (MBP-PPO), the PPO protein is able to be stably expressed as water-soluble form. Therefore, the wild type and variant proteins which were expressed in the form of fusion protein with MBP were used in the present test (refer to FIG. 4).
(§2) In order to express wild type genes and mutant genes of CyPPO10 and CyPPO13 (refer to Example 1 and Example 4), those genes were introduced to pMAL-c2X vector (refer to FIG. 5) respectively, and then cloned to BL21 (DE3) E. coli (CodonPlus).
(§3) The enzyme activity of the purified wild type protein and variant proteins of CyPPO10 and CyPPO13 was measured by the following process.
(§4) At first, a substrate of PPO protein, Protoporphyrinogen IX was synthesized. This process was performed in the space where nitrogen gas is streamed. 6 mg of protoporphyrin IX was dissolved in 20% (v/v) EtOH 20 ml, and stirred under dark condition for 30 minutes. The obtained protoporphyrinogen IX solution was put into a 15 ml screw tube in an amount of 800 and flushed with nitrogen gas for 5 minutes. To this, 1 g of sodium amalgam was added and vigorous shaking was performed for 2 minutes. The lid was open to exhaust hydrogen gas in the tube. Thereafter, the lid was closed and incubated for 3 minutes. The […] was filtered using syringe and cellulose membrane filter. To 600 μl of the obtained […], 2M MOPS [3-(N-morpholino)propanesulfonic acid] was added in an amount of approximately 300 thereby adjusting pH to 8.0. To determine the enzyme activity of PPO protein, a reaction mixture was prepared with the following composition (based on 10 ml): 50 mM Tris-Cl (pH 8.0); 50 mM NaCl; 0.04% (v/v) Tween 20; 40 mM glucose (0.072 g); 5 units glucose oxidase (16.6 mg); and 10 units catalase (1 μl).
(§5) Two hundred microliters (200 μl) of reaction mixture containing a purified PPO protein were placed in 96 well plates, and preincubated for 30 min at room temperature to reduce the oxygen concentration by the reaction of glucose oxidase-catalase. The mineral oil was layered and then the reaction was initiated by adding the substrate, […], to a final concentration of 50 μM. The reaction proceeded at room temperature for 30 min and the fluorescence of protoporphyrin IX was measured using Microplate reader (Sense, Hidex) (excitation: 405 nm; emission: 633 nm). To calculate the PPO enzyme activity, protoporphyrinogen IX solution was kept open in the air to oxidize the solution (overnight). To this, 2.7N HCl was added, and the absorbance at 408 nm was measured. A standard curve was generated using standard protoporphyrin IX, and the PPO activity was measured by calibration of protoporphyrin IX using the standard curve of protoporphyrin IX.
(§6) The final concentration of each herbicide was as follows: […]
In the case of B1, the “Activity (%)” value is on record as 82%.
For B2, the “Activity (%)” value was found to be 81%.
With B3, the “Activity (%)” value is on record as 83%.
The same measure, in the same setting: with B4 the figure was 26%.

The test system of the next assay is CyPPO10. The assay is described as follows: PPO enzyme activity and IC50 by herbicides, CyPPO10 wild type and variants (MBP-PPO fusion). Type of assay: biochemical, Thermosynechococcus elongatus BP-1. As to conditions: PPO enzyme activity of CyPPO10 protein, wild type = 100. As for the experimental part:
as §1, §2, §3, §4, §5, §6
As for B5, the “Activity (%)” value is 84%.
For the molecule B6, the “Activity (%)” value is given as 85%.
In the case of B7, the “Activity (%)” value was 19%.

Values taken from US11466286B2, “Methods and compositions for conferring and/or enhancing herbicide tolerance using protoporphyrinogen oxidase or variant thereof” (FarmHannong Co., Ltd., priority 2016, dated 2022).
